From PMC3609069 (Prion, 2012)

Target: the molecule itself
Assay: […], pH 6.6

B1: Nup100f-Trp-7xHis (WT) (domain or fragment)
chain: GVFGQNNNQMQINGNNNNSLFGKANTFSNSASGGLFGQNNQQQGSGLFGQNSQTSGSSGLFGQNNQKQPNTFTQSNTGIGLFGQNNNQQQQSTGLFGAKPA
B1: binds.
